Blank lines part the entries; values can stand above or below the binder they belong to. * marks the point of attachment. C18 diacid = O=C(O)CCCCCCCCCCCCCCCCC(=O)*
Target: T1, human amylin receptor (human calcitonin receptor + human RAMP3) (human) (UniProt P30988)
T1 sequence (looked up) 1: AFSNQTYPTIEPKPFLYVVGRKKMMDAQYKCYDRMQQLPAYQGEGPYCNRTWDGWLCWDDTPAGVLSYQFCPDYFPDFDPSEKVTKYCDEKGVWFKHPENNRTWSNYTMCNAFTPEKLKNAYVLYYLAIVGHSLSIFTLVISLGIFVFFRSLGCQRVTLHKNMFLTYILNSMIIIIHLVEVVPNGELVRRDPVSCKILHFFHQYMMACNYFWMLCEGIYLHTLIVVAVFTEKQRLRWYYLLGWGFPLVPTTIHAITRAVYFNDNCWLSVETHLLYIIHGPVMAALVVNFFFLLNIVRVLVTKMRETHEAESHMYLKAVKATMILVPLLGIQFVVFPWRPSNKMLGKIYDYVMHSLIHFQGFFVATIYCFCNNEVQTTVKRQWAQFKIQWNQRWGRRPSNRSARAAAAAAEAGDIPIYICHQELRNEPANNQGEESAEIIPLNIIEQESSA
T1 sequence (looked up) 2: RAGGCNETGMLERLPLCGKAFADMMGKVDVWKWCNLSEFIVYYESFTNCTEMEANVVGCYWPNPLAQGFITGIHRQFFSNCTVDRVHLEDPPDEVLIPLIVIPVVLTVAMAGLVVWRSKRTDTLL
Experiment: whole-cell competition vs 125I-rat amylin (Assay Va)

- IC50: 0.375 nM
B1: [N-terminal(C18 diacid), 2P, 9V]mimylin (peptide)
peptide: {C18 diacid}-EPSELSTAVLGRLSAELHELATLPRTETGPESP-NH2
SMILES: CC(C)C[C@H](NC(=O)[C@H](CCC(=O)O)NC(=O)[C@H](Cc1c[nH]cn1)NC(=O)[C@H](CC(C)C)NC(=O)[C@H](CCC(=O)O)NC(=O)[C@H](C)NC(=O)[C@H](CO)NC(=O)[C@H](CC(C)C)NC(=O)[C@H](CCCNC(=N)N)NC(=O)CNC(=O)[C@H](CC(C)C)NC(=O)[C@@H](NC(=O)[C@H](C)NC(=O)[C@@H](NC(=O)[C@H](CO)NC(=O)[C@H](CC(C)C)NC(=O)[C@H](CCC(=O)O)NC(=O)[C@H](CO)NC(=O)[C@@H]1CCCN1C(=O)[C@H](CCC(=O)O)NC(=O)CCCCCCCCCCCCCCCCC(=O)O)[C@@H](C)O)C(C)C)C(=O)N[C@@H](C)C(=O)N[C@H](C(=O)N[C@@H](CC(C)C)C(=O)N1CCC[C@H]1C(=O)N[C@@H](CCCNC(=N)N)C(=O)N[C@H](C(=O)N[C@@H](CCC(=O)O)C(=O)N[C@H](C(=O)NCC(=O)N1CCC[C@H]1C(=O)N[C@@H](CCC(=O)O)C(=O)N[C@@H](CO)C(=O)N1CCC[C@H]1C(N)=O)[C@@H](C)O)[C@@H](C)O)[C@@H](C)O

- IC50: 0.374 nM
B2: [N-terminal(C18 diacid), 9L, 10A]mimylin (peptide)
peptide: {C18 diacid}-EASELSTALAGRLSAELHELATLPRTETGPESP-NH2
SMILES: CC(C)C[C@H](NC(=O)[C@H](C)NC(=O)[C@@H](NC(=O)[C@H](CO)NC(=O)[C@H](CC(C)C)NC(=O)[C@H](CCC(=O)O)NC(=O)[C@H](CO)NC(=O)[C@H](C)NC(=O)[C@H](CCC(=O)O)NC(=O)CCCCCCCCCCCCCCCCC(=O)O)[C@@H](C)O)C(=O)N[C@@H](C)C(=O)NCC(=O)N[C@@H](CCCNC(=N)N)C(=O)N[C@@H](CC(C)C)C(=O)N[C@@H](CO)C(=O)N[C@@H](C)C(=O)N[C@@H](CCC(=O)O)C(=O)N[C@@H](CC(C)C)C(=O)N[C@@H](Cc1c[nH]cn1)C(=O)N[C@@H](CCC(=O)O)C(=O)N[C@@H](CC(C)C)C(=O)N[C@@H](C)C(=O)N[C@H](C(=O)N[C@@H](CC(C)C)C(=O)N1CCC[C@H]1C(=O)N[C@@H](CCCNC(=N)N)C(=O)N[C@H](C(=O)N[C@@H](CCC(=O)O)C(=O)N[C@H](C(=O)NCC(=O)N1CCC[C@H]1C(=O)N[C@@H](CCC(=O)O)C(=O)N[C@@H](CO)C(=O)N1CCC[C@H]1C(N)=O)[C@@H](C)O)[C@@H](C)O)[C@@H](C)O

- IC50: 0.891 nM
B3: [N-terminal(C18 diacid), 9V, 10I]mimylin (peptide)
peptide: {C18 diacid}-EASELSTAVIGRLSAELHELATLPRTETGPESP-NH2
SMILES: CC[C@H](C)[C@H](NC(=O)[C@@H](NC(=O)[C@H](C)NC(=O)[C@@H](NC(=O)[C@H](CO)NC(=O)[C@H](CC(C)C)NC(=O)[C@H](CCC(=O)O)NC(=O)[C@H](CO)NC(=O)[C@H](C)NC(=O)[C@H](CCC(=O)O)NC(=O)CCCCCCCCCCCCCCCCC(=O)O)[C@@H](C)O)C(C)C)C(=O)NCC(=O)N[C@@H](CCCNC(=N)N)C(=O)N[C@@H](CC(C)C)C(=O)N[C@@H](CO)C(=O)N[C@@H](C)C(=O)N[C@@H](CCC(=O)O)C(=O)N[C@@H](CC(C)C)C(=O)N[C@@H](Cc1c[nH]cn1)C(=O)N[C@@H](CCC(=O)O)C(=O)N[C@@H](CC(C)C)C(=O)N[C@@H](C)C(=O)N[C@H](C(=O)N[C@@H](CC(C)C)C(=O)N1CCC[C@H]1C(=O)N[C@@H](CCCNC(=N)N)C(=O)N[C@H](C(=O)N[C@@H](CCC(=O)O)C(=O)N[C@H](C(=O)NCC(=O)N1CCC[C@H]1C(=O)N[C@@H](CCC(=O)O)C(=O)N[C@@H](CO)C(=O)N1CCC[C@H]1C(N)=O)[C@@H](C)O)[C@@H](C)O)[C@@H](C)O
